The text below walks through data of PMC12663325, “Structural insights into mechanisms of zinc scavenging by the Candida albicans zincophore Pra1” (Nature Communications, 2025).

The data set deals with the molecule itself. The data set can be described thus: cryo-EM structure; Pra1:Zn2+ complex; 20 mM Tris-HCl pH 8.0, 150 mM NaCl, 1 mM ZnSO4, 0.05% BSA as additive; C1 map, 2.5 Å.

B1: Candida albicans Pra1, recombinant wild type (full-length excluding the signal peptide) (natural protein)
chain: APVTVTRFVDASPTGYDWRADWVKGFPIDSSCNATQYNQLSTGLQEAQLLAEHARDHTLRFGSKSPFFRKYFGNETASAEVVGHFDNVVGADKSSILFLCDDLDDKCKNDGWAGYWRGSNHSDQTIICDLSFVTRRYLTQLCSSGYTVSKSKTNIFWAGDLLHRFWHLKSIGQLVIEHYADTYEEVLELAQENSTYAVRNSNSLIYYALDVYAYDVTIPGEGCNGDGTSYKKSDFSSFEDSDSGSDSGASSTASSSHQHTDSNPSATTDANSHCHTHADGEVHC
modifications: N-linked glycosylation at Asn 48, Asn 89, Asn 135 and Asn 208; three intramolecular disulfide bonds
notes: Pra1 of Candida albicans, codon-optimized full-length PRA1 excluding the signal peptide; the precursor is 299 amino acids including its N-terminal signal peptide; residues 31-251 are seen in the cryo-EM maps; A TEV protease site stood between the His-tag and Pra1; also called zincophore Pra1; wild-type Pra1; not shown: His-tag, N-terminal, cleaved
B1: the stoichiometry N – broadly, the number of molecules, sites or subunits per partner or assembly – came to 6.
